Experimental data: paper PMC7888556 (Biochemical and biophysical research communications, 2017)

Target: T1, CEP192-WT (residues 507-1065 of human CEP192, C-terminal V5 and 6XHis tags) (human, UniProt Q8TEP8 507-1065)
T1 sequence (looked up): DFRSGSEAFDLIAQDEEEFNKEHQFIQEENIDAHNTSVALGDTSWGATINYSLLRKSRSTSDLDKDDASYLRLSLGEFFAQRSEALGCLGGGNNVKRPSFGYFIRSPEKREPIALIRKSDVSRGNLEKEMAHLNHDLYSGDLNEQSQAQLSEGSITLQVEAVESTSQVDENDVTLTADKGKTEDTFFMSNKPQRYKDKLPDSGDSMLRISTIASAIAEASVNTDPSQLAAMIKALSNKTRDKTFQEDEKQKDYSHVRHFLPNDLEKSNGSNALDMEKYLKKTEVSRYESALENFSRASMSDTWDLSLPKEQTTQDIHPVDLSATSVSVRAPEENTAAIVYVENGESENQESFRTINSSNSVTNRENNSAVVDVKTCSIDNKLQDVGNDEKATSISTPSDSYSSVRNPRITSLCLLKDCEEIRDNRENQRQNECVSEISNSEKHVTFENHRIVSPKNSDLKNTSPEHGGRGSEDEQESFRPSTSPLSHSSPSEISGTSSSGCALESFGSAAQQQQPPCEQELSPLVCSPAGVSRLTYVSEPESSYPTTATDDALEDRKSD
Assay: pull-down

binding result: binds
B1: Human PP1β (type one protein phosphatase, purified) (enzyme, UniProt P62140 1-327, looked up)
chain: MADGELNVDSLITRLLEVRGCRPGKIVQMTEAEVRGLCIKSREIFLSQPILLELEAPLKICGDIHGQYTDLLRLFEYGGFPPEANYLFLGDYVDRGKQSLETICLLLAYKIKYPENFFLLRGNHECASINRIYGFYDECKRRFNIKLWKTFTDCFNCLPIAAIVDEKIFCCHGGLSPDLQSMEQIRRIMRPTDVPDTGLLCDLLWSDPDKDVQGWGENDRGVSFTFGADVVSKFLNRHDLDLICRAHQVVEDGYEFFAKRQLVTLFSAPNYCGEFDNAGGMMSVDETLMCSFQILKPSEKKAKYQYGGLNSGRPVTPPRTANPPKKR
